Test results published in patent US20250197501A1.

T1: recombinant human B7-H3-mFc protein (human) (UniProt Q5ZPR3)
T1 sequence: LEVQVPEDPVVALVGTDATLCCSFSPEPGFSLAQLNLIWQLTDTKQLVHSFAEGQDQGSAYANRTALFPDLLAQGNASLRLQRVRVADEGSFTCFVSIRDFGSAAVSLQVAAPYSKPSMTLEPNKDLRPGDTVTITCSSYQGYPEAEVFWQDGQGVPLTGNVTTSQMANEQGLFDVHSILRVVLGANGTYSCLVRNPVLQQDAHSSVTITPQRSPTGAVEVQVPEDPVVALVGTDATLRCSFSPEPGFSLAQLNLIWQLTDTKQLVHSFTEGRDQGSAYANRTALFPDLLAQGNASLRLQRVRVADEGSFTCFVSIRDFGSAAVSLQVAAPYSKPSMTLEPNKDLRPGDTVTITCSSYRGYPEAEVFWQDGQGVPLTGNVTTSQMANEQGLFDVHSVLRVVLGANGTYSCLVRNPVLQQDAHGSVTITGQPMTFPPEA


How the values were obtained:
[1] = molecular target: recombinant cynomolgus monkey B7-H3 protein (cynomolgus monkey); assay: SPR (Biacore), antibody captured on anti-human IgG chip, B7-H3 protein injected
[2] = molecular target: recombinant cynomolgus monkey B7-H3 protein (cynomolgus monkey); assay: ELISA, plate coated with cynomolgus monkey B7-H3
[3] = molecular target: T1, recombinant human B7-H3-mFc protein (human); assay: competitive binding ELISA on B7-H3 protein, competitor Ifinatamab (4 µg/mL)
[4] = molecular target: T1, recombinant human B7-H3-mFc protein (human); assay: competitive binding ELISA on B7-H3 protein, no competitor
[5] = molecular target: T1, recombinant human B7-H3-mFc protein (human); assay: competitive binding ELISA on B7-H3 protein, competitor mAb 91H06

| Kd [1] [nM] | EC50 [2] [nM] | EC50 [3] [nM] | EC50 [4] [nM] | EC50 [5] [nM] | Binder |
| --- | --- | --- | --- | --- | --- |
| 0.471 | 0.0244 |  |  |  | mAb 91H06 (antibody, V domains shown) VH: EVQLVESGGGLVQPGGSLRLSCAASGFTFSDYGMGWVRQAPGKGLEWVSSISWDSSSKEYADSVKGRFTISRDNSKNTLYLQMNSLRAEDTAVYYCARAWIAIIGGGAHFDYWGQGTLVTVSS VL: DIQMTQSPSSLSASVGDRVTITCRASQSVSSHLAWYQQKPGKAPKLLIYLTSSLQSGVPSRFSGSGSGTDFTLTISSLQPEDFATYYCMQSKSLPFTFGQGTKVEIKR |
|  |  | 1.78 | 0.0331 | 0.0346 | Ifinatamab-biotin (antibody, INN chains, looked up, V domains shown, biotin) VH: QVQLVQSGAEVKKPGSSVKVSCKASGYTFTNYVMHWVRQAPGQGLEWMGYINPYNDDVKYNEKFKGRVTITADESTSTAYMELSSLRSEDTAVYYCARWGYYGSPLYYFDYWGQGTLVTVSS VL: EIVLTQSPATLSLSPGERATLSCRASSRLIYMHWYQQKPGQAPRPLIYATSNLASGIPARFSGSGSGTDFTLTISSLEPEDFAVYYCQQWNSNPPTFGQGTKVEIK |
